Experiment [1] addresses T1, human 5T4 oncofoetal antigen (human, UniProt Q13641 32-420).
T1 construct: whole, on cells; also called hu 5T4; human 5T4 antigen
T1 sequence (looked up): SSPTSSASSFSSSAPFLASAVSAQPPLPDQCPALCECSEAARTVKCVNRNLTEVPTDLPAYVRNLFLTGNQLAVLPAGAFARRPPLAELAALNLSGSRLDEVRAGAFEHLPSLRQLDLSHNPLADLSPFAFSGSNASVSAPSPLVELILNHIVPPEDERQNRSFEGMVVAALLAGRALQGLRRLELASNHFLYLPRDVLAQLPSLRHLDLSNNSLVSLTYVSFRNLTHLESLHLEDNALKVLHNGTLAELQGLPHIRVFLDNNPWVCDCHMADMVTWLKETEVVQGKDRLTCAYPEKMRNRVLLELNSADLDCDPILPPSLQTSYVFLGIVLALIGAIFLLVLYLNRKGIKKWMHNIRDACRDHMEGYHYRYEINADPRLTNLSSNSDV
Kind of experiment: flow cytometry, CHOZN cells expressing hu 5T4. On the procedure: (§1) 17 antibodies were selected and affinity to 5T4 antigen was measured using MDA-MB-468 cells, PA-1 cells and Chinese Hamster Ovary (CHO) mammalian cells expressing human or cyno 5T4 antigen (Table 2). In the current application the utilized CHO cells are referred to as CHOZN as these CHO cells expressing human or cyno 5T4 antigen were obtained using the CHOZN® Platform of Sigma-Aldrich. CHOZN cells (SAFC) were transiently transfected, using an Amaxa nucleofector device (Lonza) according to the manufacturer's instructions. Standard, commercially available mammalian expression vectors (SAFC, Life Technologies) were used, which contained the full length human and cyno 5T4 antigen coding sequence (according to accession number NP 006661.1 and Q4R8Y9 respectively), preceded by a human CMV promoter. Transiently transfected CHOZN cells were cultured according the manufacturer's instructions, before being used in antibody binding studies. The 17 selected antibodies are characterised by the amino acid sequences according to the following table (Table 1).
(§2) MDA-MB-468 cells, PA-1 cells or CHOZN cells expressing human or cyno 5T4 antigen (100,000 cells/well in a 96-well plate) were washed three times with ice-cold FACS buffer (1×PBS (Lonza) containing 0.2% v/w BSA (Sigma-Aldrich, St. Louis, Mo.)) and 0.02% v/w NaN3 (Sigma-Aldrich), followed by the addition of a concentration range of each primary mAb (50 μl/well) diluted in ice-cold FACS buffer. After an incubation of 30 minutes at 4° C., cells were washed three times with ice-cold FACS buffer and 50 μl/well secondary mAb (AffiniPure F(ab′)2 fragment Goat-anti-human IgG-APC, 1:6,000 dilution, Jackson Immuno Research) was added. After 30 minutes at 4° C., cells were washed twice and resuspended in 150 μl FACS buffer. Fluorescence intensities were determined by flow cytometry (BD FACSVerse, Fanklin Lakes, N.J.) and indicated as the median fluorescence intensity (MFI). Curves were fitted by nonlinear regression using the sigmoidal dose-response equation with variable slope (four parameters) in GraphPad Prism (version 5.01/6.01 for Windows, GraphPad, San Diego, Calif.). EC₅₀ values were calculated as the concentration in μg/ml that gives a response half way between bottom and top of the curve, when using a 4 parameter logistic fit.
Background: A flow cytometer gives signals particle by particle.

Experiment [2] concerns the target T1, human 5T4 oncofoetal antigen. The experiment is described as follows: flow cytometry, MDA-MB-468 cells. On the procedure:
as §1, §2

The target of experiment [3] is T2, cynomolgus monkey 5T4 antigen (cynomolgus monkey, UniProt Q4R8Y9 35-420).
T2 construct: whole, on cells; also called cyno 5T4
T2 sequence (looked up): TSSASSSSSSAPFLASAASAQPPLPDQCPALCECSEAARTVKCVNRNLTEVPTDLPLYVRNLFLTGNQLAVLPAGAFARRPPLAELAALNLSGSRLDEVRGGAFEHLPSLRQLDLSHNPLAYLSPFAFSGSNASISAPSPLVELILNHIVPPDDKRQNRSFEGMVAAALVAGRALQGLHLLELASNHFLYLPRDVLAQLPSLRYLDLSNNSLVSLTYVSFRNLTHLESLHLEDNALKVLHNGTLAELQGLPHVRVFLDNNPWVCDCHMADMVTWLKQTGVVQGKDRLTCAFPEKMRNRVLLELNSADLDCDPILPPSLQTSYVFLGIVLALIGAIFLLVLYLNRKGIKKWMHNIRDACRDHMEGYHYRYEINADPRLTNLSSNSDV
Kind of experiment: flow cytometry, CHOZN cells expressing cyno 5T4. On the procedure: as §2

For experiment [4], the target named is T2, cynomolgus monkey 5T4 antigen. Kind of experiment: flow cytometry, CHOZN cells expressing cyno 5T4. On the procedure: as §1, §2
The source holds these as a separate data set.

Experiment [5] deals with T1, human 5T4 oncofoetal antigen. The experiment is described as follows: flow cytometry, PA-1 cells. As for the experimental part:
as §1, §2

We go through 11 molecules from US20210317231A1 (BYONDIS B V, published 2021).

B1: chimeric anti-5T4 monoclonal antibody 845 (antibody, human IgG1, V domains shown)
VH: QSLEESGGRLVTPGTPLTLTCTVSGIDLSSYTMNWVRQAPGKGLEWIGVITSHNTYYASWAKGRFTISKTSTTVDLKITSPTTEDTATYFCARSNYGSTIYYMGGMDPWGPGTLVTVSS
VL: DVVMTQTPASVSAAVGGTVTINCQASQSIGSYLAWYQHQPGQPPKLLIYSASTLESGVSSRFEGSRSGTEYTLTISDLDSADAATYYCQCTDYGASYLGAFGGGTEVVVK
As a reminder, the EC50 is the concentration at which the effect is half-maximal. On to B1, for which the EC50 in experiment [1] stood at 0.2 µg/mL; in experiment [2], 0.11 µg/mL; in experiment [4], 0.17 µg/mL; in experiment [5], 0.05 µg/mL. The “fold improvement of binding compared to H8 on cyno 5T4” value (“fold improvement of binding” for short) in experiment [3] was 32 fold.

B2: chimeric anti-5T4 monoclonal antibody 835 (antibody, human IgG1, V domains shown)
VH: QSVEESGGRLVTPGTPLTLTCTVSGIDLSSGAMGWVRQAPGKGLEWIGLISSSPITYYANWARGRFTISKTSTTVDLKITSPTTADTATYFCARGYDDYGEIWFNIWGPGTLVTVSL
VL: AIEMTQSPPSLSASVGETVRIRCLAGEDIYSSISWYQQKPGKPPTLLIYGASNLESGVPPRFSGSGSGTDYTLTIGGVQAEDAATYYCLGGWSYSSSLTFGAGTKVEIK
Turning to B2, the EC50 stood at 0.17 µg/mL in experiment [1], 0.09 µg/mL in experiment [2], 0.18 µg/mL in experiment [4] and 0.08 µg/mL in experiment [5]. Also, in experiment [3], the “fold improvement of binding” value is 32 fold.

B3: chimeric anti-5T4 monoclonal antibody 789 (antibody, human IgG1, V domains shown)
VH: QSVEESGGRLVTPGTPLTLTCTASGFSLSSYWMSWVRQAPGKGLEWIGIIAGRGSTYYASWAKGRCTISKTSTTVDLKITSPTTEDTAAYFCARVSSIYYTFNLWGQGTLVTVSS
VL: AQVLTQTPSSVSAAVGGTVTINCQSSQSVYSNNELSWYQQKPGQPPKLLIYYASTLASGVPSRFKGSGSGTQFTLTISGVQSDDAATYYCQGSYYSGSGWYYAFGGGTEVVVK
notes: also called clone 789
As for B3, the EC50 in experiment [1] was found to be 0.27 µg/mL; in experiment [2] it was 0.1 µg/mL; in experiment [4] it was 0.15 µg/mL; in experiment [5], 0.03 µg/mL. For the same molecule, the “fold improvement of binding” value in experiment [3] worked out at 32 fold.

B4: chimeric anti-5T4 monoclonal antibody 899 (antibody, human IgG1, V domains shown)
VH: QSVEESGGRLVTPGTPLTLTCTVSGFSLSSYTMSWVRQAPGKGLEYIGIISSSDGTWYANWVKGRFTISKTSTTVDLKMTSLTTEDTATYFCARDGTGNKYYTWDRLDLWGQGTLVTVSS
VL: NIVMTQTPSPVSGAVGGTVTINCQASQSIYNELSWYQQKPGQPPKLLIYYASTLASGVSSRFKGSGSGTQFTLTISGVESVDAATYYCQQGYSSSNVDNVFGGGTEVVVK
Consider B4, for which the EC50 in experiment [1] turned out to be 0.17 µg/mL; in experiment [2], 0.09 µg/mL; in experiment [4], 0.18 µg/mL; in experiment [5], 0.05 µg/mL. In experiment [3], the “fold improvement of binding” value was 32 fold.

B5: chimeric anti-5T4 monoclonal antibody 848 (antibody, human IgG1, V domains shown)
VH: QSVEESGGRLVTPGTPLTLTCTVSGFSLSSYTMSWVRQAPGKGLEWIGIISSIGSIWYASWAKGRFTISKTSTTVDLKMTSLTTEDTATYFCARDGTGSKYYTWDRLDLWGQGTLVTVSS
VL: NIVMTQTPSPVSGAVGGTVTINCQASQSIYNELSWYQQKPGQPPKLLIYYTSTLASGVSSRFKGSGSGTQFTLTISGVESVDAATYYCQQGYSSSDVDNVFGGGTEVVVK
Regarding B5, the EC50 in experiment [1] was found to be 0.17 µg/mL; in experiment [2] it was 0.09 µg/mL; in experiment [4], 0.12 µg/mL; in experiment [5], 0.05 µg/mL. Further, the “fold improvement of binding” value in experiment [3] came out at 32 fold.

B6: chimeric anti-5T4 monoclonal antibody 841 (antibody, human IgG1, V domains shown)
VH: QSLEESGGRLVTPGTPLTLTCKASGFSLSTYWMSWVRQAPGKGLEWIGIMLSYGNTVYANWAKGRFTISKTSSTTVDLKITSPTTEDTATYFCARGLYGGYPNYGVYDLWGQGTLVTVSS
VL: DVVMTQTPASVEAAVGGTVTIKCQASQSISSYLSWYQQKPGQPPKLLIYAASNLASGVSSRFKGSRSGTEYTLTISDLESADAATYYCQCTDYGSNYVGAFGGGTEVVVK
As for B6, the EC50 came out at 0.24 µg/mL in experiment [1], 0.1 µg/mL in experiment [2], 0.14 µg/mL in experiment [4] and 0.02 µg/mL in experiment [5]. Besides, the “fold improvement of binding” value in experiment [3] stood at 32 fold.

B7: chimeric anti-5T4 monoclonal antibody 825 (antibody, human IgG1, V domains shown)
VH: QSVEESGGRLVTPGTPLTLTCTVSGIDLSSYGMGWVRQAPGKGLEYIGIISRNSVTYYATWAKGRFTISKTSTTVDLKMTSPTTEDTATYFCARRATYSGALGYFDIWGPGTLVTVSF
VL: GYDMTQTPASVSAAVGGTVTINCQASENIYSTLAWYQQKPGQPPKVLIYDAFDLASGVPSRFKGSGSGTEYTLTISGVQSDDAATYYCQQGYSGTNVDNAFGGGTEVVVK
notes: also called clone 825
For B7, the EC50 in experiment [1] was 0.13 µg/mL; in experiment [2], 0.07 µg/mL; in experiment [4] it was 0.14 µg/mL; in experiment [5], 0.03 µg/mL. The “fold improvement of binding” value in experiment [3] was determined as 32 fold.

B8: chimeric anti-5T4 monoclonal antibody 868 (antibody, human IgG1, V domains shown)
VH: QSVEESGGRLVTPGTPLTLTCTASGFSLSDYTMGWVRQAPGKGLEWIGIINGYGSTYYANWAKGRFAISKTSTTVDLKITSPATEDTATYFCARGDTGRTYDMHFNLWGQGTLVTVSS
VL: AYDMTQTPASVSAAVGGTVTIKCQASESIRSWLAWYQQKPGQPPKLLIYSASTLASGVSSRFKGSGSGTQFTLTIGDLESADAATYYCQQGYTSSNLDNAFGGGTEVLVK
Turning to B8, the EC50 in experiment [1] came to 0.22 µg/mL; in experiment [2], 0.14 µg/mL; in experiment [4], 0.17 µg/mL; in experiment [5] it was 0.04 µg/mL. For the same molecule, the “fold improvement of binding” value in experiment [3] came to 32 fold.

B9: chimeric anti-5T4 monoclonal antibody 843 (antibody, human IgG1, V domains shown)
VH: QSLEESGGRLVTPGTPLTLTCTASGFSLNNAYMNWVRQAPGKGLEWIGIINTYGSTYFATWAKGRFTFSKTSTTVDLKITSPTTEDTATYFCARAYAPFSTYSHYYGMDLWGPGTLVTVSS
VL: DVVMTQTPSSVSAAVGGTVTIKCQASESIGSWLSWYQQKPGQPPKLLIYEASKLTSGVPSRFKGSGSGTEYTLTISDLESADAATYYCQYTDYGSNYLGTFGGGTEVVVK
As to B9, the EC50 in experiment [1] is 0.21 µg/mL; in experiment [2] it was 0.08 µg/mL; in experiment [4] it was 0.21 µg/mL; in experiment [5] it was 0.04 µg/mL. Moreover, the “fold improvement of binding” value in experiment [3] came out at 32 fold.

B10: chimeric anti-5T4 monoclonal antibody 833 (antibody, IgG1, V domains shown)
VH: QSLEESGGGLVTPGGSLTLTCTGSGIDLSHYVVGWVRQAPGKGLEWIGIIYGSGRTYYANWAKGRFTISKTSTTVDLRIARPTAEDTATYFCARDASVSVYYWGYFDLWGQGTLVTVSS
VL: AYDMTQTPVSVEVAVGGTVTIKCQASQSIGSELAWYQQKPGQPPKLLIYRASTLESGVPSRFSGSGSGTEFTLTISGVESADAATYYCQQGYTYSEIDNAFGGGTEVVVK
notes: also called clone 833
For the molecule B10, the EC50 worked out at 0.14 µg/mL in experiment [1], 0.04 µg/mL in experiment [2], 0.08 µg/mL in experiment [4] and 0.02 µg/mL in experiment [5]. For the same molecule, in experiment [3], the “fold improvement of binding” value stood at 32 fold.

B11: chimeric anti-5T4 monoclonal antibody 834 (antibody, human IgG1, V domains shown)
VH: QSVEESGGRLVTPGTPLTLTCTVSGFSLSTYSMSWVRQAPGKGLEWIGVISRGGSAYYASWAKGRFTISKTSTTVDLKVTSPTTEDTATYFCARGAISSGYYVYDGMDLWGPGTLVTVSS
VL: DIVMTQTPGSVEAAVGGTVTIKCQASESISSYLAWYQQKPGQPPKFLIYSASTLASGVPSRFKGSGSGTEFTLTISDLESADAATYYCQCTDYGSDYMGAFGGGTGVVVK
On to B11, for which the EC50 was 0.19 µg/mL in experiment [1], 0.13 µg/mL in experiment [2], 0.13 µg/mL in experiment [4] and 0.05 µg/mL in experiment [5]. Moreover, the “fold improvement of binding” value in experiment [3] amounted to 32 fold.
